Experimental data published in patent US12473560 (FLAGSHIP PIONEERING INNOVATIONS VI, dated 2025).
Like-named read-outs stand apart in the source and are kept apart here.

Columns and labels:
[1] = biological target: T1, SARS-CoV-2 Spike protein receptor-binding domain (RBD) (SARS-CoV-2, UniProt P0DTC2 319-527); assay: BLI (Octet Red96e), IgG captured on anti-human Fc sensors, RBD in solution
[2] = biological target: SARS-CoV-2 Spike as carried on rVSV-SARS-CoV-2 pseudovirus and authentic WT virus (SARS-CoV-2, UniProt P0DTC2 14-1273); assay: cell-based or functional assay
[3] = biological target: T1, SARS-CoV-2 Spike protein …
[4] = biological target: T1, SARS-CoV-2 Spike protein …; assay: BLI (Octet), IgG captured on anti-human Fc sensors, RBD in solution
[5] = biological target: T1, SARS-CoV-2 Spike protein …; assay: BLI (Octet), IgG1 captured on anti-human Fc sensors, RBD in solution; as to Req: test concentration or dose not given here; as to Response: test concentration or dose not given here; as to kobs: test concentration or dose not given here

B1: AB-1 full-length IgG1 (antibody, V domains shown)
VH: EVQLEESGTVLARPGASVKMSCKASGYTFTTYWMHWIKQRPGQGLEWIGAIYPGNSDTQYNQKFKDKAKLTAVKSTSSAYMELSSLTNEDSAVYFCTREGIPQLLRTLDYWGQGTSVTVSS
VL: DILMTQSPSSLSASLGERVSLTCRASQEISGYLSWLQEKPDGTIKRLIYAASTLDSGVPKRFSGSRSGSDYSLTISSLESEDFADYYCLQYLSYPWTFGGGTKLEIK
Kd [1]: 39 nM | koff [1]: 0.0024 s⁻¹ | kon [1]: 62000 M⁻¹ s⁻¹ | Neutralization (ng/mL), Authentic Virus IC50 [2]: 78 ng/mL | Neutralization (ng/mL), Authentic Virus IC80 [2]: 543 ng/mL | Neutralization (ng/mL), Pseudovirus IC50 [2]: 0.0782 ng/mL | Neutralization (ng/mL), Pseudovirus IC80 [2]: 2.6 ng/mL | Neutralization (ng/mL), Pseudovirus IC90 [2]: 9.56 ng/mL | Kd [3]: 34.2 nM | Kd [4]: 39 nM | Kd [5]: 15.9 nM | Req [5]: 0.388 nm shift | Response [5]: 0.364 nm shift | kobs [5]: 0.00924 s⁻¹ | koff [5]: 0.00127 s⁻¹ | kon [5]: 79700 M⁻¹ s⁻¹

B2: AB-3 full-length IgG1 (antibody, V domains shown)
VH: EVQLEESGTVLARPGASVKMSCKASGYTFTTYWMHWIKQRPGQGLEWIGAIYPGNGDTNYNQKFKDKAKLTAVKSTSSAYMELSSLTNEDSAVYFCTREGIPQKLRTLDVWGQGTSVTVSS
VL: DILMTQSPSSLSASLGERVSLTCRASQEISGYLSWLQEKPDGTIKRLIYAASTLDSGVPKRFSGSRSGSDYSLTISSLESEDFADYYCLQYLSYPWTFGGGTKLEIK
Neutralization (ng/mL), Authentic Virus IC50 [2]: 3550 ng/mL | Neutralization (ng/mL), Authentic Virus IC80 [2]: 11100 ng/mL | Neutralization (ng/mL), Pseudovirus IC50 [2]: 17.6 ng/mL | Neutralization (ng/mL), Pseudovirus IC80 [2]: 110 ng/mL | Neutralization (ng/mL), Pseudovirus IC90 [2]: 502 ng/mL | Kd [3]: 177 nM

B3: AB-4 full-length IgG1 (antibody, V domains shown)
VH: EVQLEESGTVLARPGASVKMSCKASGYTFTTYWMHWIKQRPGQGLEWIGAIYPGNGDTNYNQKFKDKAKLTAVKSTSSAYMELSSLTNEDSAVYFCTREGIPQLLRTFDYWGQGTSVTVSS
VL: DILMTQSPSSLSASLGERVSLTCRASQEIGGYLSWLQEKPDGTIKRLIYAASTLDSGVPKRFSGSRSGSDYSLTISSLESEDFADYYCLQYLSYPWTFGGGTKLEIK
Kd [3]: 151 nM

B4: AB-5 full-length IgG1 (antibody, V domains shown)
VH: EVQLEESGTVLARPGASVKMSCKASGYTFTSYWMHWIKQRPGQGLEWIGAIYPGNGDTNYNQKFKDKAKLTAVKSTSSAYMELSSLTNEDSAVYFCTREGIPQLLNTLDVWGQGTSVTVSS
VL: DILMTQSPSSLSASLGERVSLTCRASQEISGYLSWLQEKPDGTIKRLIYAASTLDSGVPKRFSGSRSGSDYSLTISSLESEDFADYYCQQYLSYPWTFGGGTKLEIK
Neutralization (ng/mL), Authentic Virus IC50 [2]: 260 ng/mL | Neutralization (ng/mL), Authentic Virus IC80 [2]: 2460 ng/mL | Neutralization (ng/mL), Pseudovirus IC50 [2]: 8.25 ng/mL | Neutralization (ng/mL), Pseudovirus IC80 [2]: 35.2 ng/mL | Neutralization (ng/mL), Pseudovirus IC90 [2]: 71.1 ng/mL | Kd [3]: 148 nM | Kd [5]: 41.3 nM | Req [5]: 0.318 nm shift | Response [5]: 0.315 nm shift | kobs [5]: 0.0117 s⁻¹ | koff [5]: 0.00341 s⁻¹ | kon [5]: 82500 M⁻¹ s⁻¹

B5: AB-6 full-length IgG1 (antibody, V domains shown)
VH: EVQLEESGTVLARPGASVKMSCKASGYTFTSYWMHWIKQRPGQGLEWIGAIYPGNSDTNYNQKFKDKAKLTAVKSTSSAYMELSSLTNEDSAVYFCTREGIPQLTRTLDYWGQGTSVTVSS
VL: DILMTQSPSSLSASLGERVSLTCRASQEISGYLSWLQEKPDGTIKRLIYAASTLDSGVPKRFSGSRSGSDYSLTISSLESEDFADYYCLQYLSYPWTFGGGTKLEIK
Neutralization (ng/mL), Authentic Virus IC50 [2]: 25000 ng/mL | Neutralization (ng/mL), Authentic Virus IC80 [2]: 25000 ng/mL | Neutralization (ng/mL), Pseudovirus IC50 [2]: 6.15 ng/mL | Neutralization (ng/mL), Pseudovirus IC80 [2]: 27.2 ng/mL | Neutralization (ng/mL), Pseudovirus IC90 [2]: 58.4 ng/mL | Kd [3]: 103 nM

B6: AB-7 full-length IgG1 (antibody, V domains shown)
VH: EVQLEESGTVLARPGASVKMSCKASGYTFTSYWMHWIKQRPGQGLEWIGAIYPGNSDTNYNQKFKDKAKLTAVKSTSSAYMELSSLTNEDSAVYFCTREGIPQLLRSLDYWGQGTSVTVSS
VL: DILMTQSPSSLSASLGERVSLTCRASQEISGYLSWLQEKPDGTIKRLIYAASTLDSGVPKRFSGSRSGSDYSLTISSLESEDFADYYCLQYLSYPWTFGGGTKLEIK
Neutralization (ng/mL), Pseudovirus IC50 [2]: 24.6 ng/mL | Kd [3]: 386 nM

B7: AB-8 full-length IgG1 (antibody, V domains shown)
VH: EVQLEESGTVLARPGASVKMSCKASGYTFTTYWMHWIKQRPGQGLEWIGAIYPGNSDTIYNQKFKDKAKLTAVKSTSSAYMELSSLTNEDSAVYFCTREGIPQLLRTLDYWGQGTSVTVSS
VL: DILMTQSPSSLSASLGERVSLTCRASQEISGYLSWLQEKPDGTIKRLIYAASTLDSGVPKRFSGSRSGSDYSLTISSLESEDFADYYCLQYLSYPWTFGGGTKLEIK
Neutralization (ng/mL), Authentic Virus IC50 [2]: 222 ng/mL | Neutralization (ng/mL), Authentic Virus IC80 [2]: 1600 ng/mL | Neutralization (ng/mL), Pseudovirus IC50 [2]: 0.792 ng/mL | Neutralization (ng/mL), Pseudovirus IC80 [2]: 3.34 ng/mL | Neutralization (ng/mL), Pseudovirus IC90 [2]: 7.6 ng/mL | Kd [3]: 104 nM

B8: AB-9 full-length IgG1 (antibody, V domains shown)
VH: EVQLEESGTVLARPGASVKMSCKASGYTFTSYWMHWIKQRPGQGLEWIGAIYPGNSDTNYNQKFKDKAKLTAVTSTSSAYMELSSLTNEDSAVYFCTREGIPQLLRTLDYWGQGTSVTVSS
VL: DILMTQSPSSLSASLGERVSLTCRASQEISGYLSWLQEKPDGTIKRLIYAASTLDSGVPKRFSGSRSGSDYSLTISSLESEDFADYYCLQYLSYPWTFGGGTKLEIK
Neutralization (ng/mL), Authentic Virus IC50 [2]: 100 ng/mL | Neutralization (ng/mL), Authentic Virus IC80 [2]: 627 ng/mL | Neutralization (ng/mL), Pseudovirus IC50 [2]: 0.824 ng/mL | Neutralization (ng/mL), Pseudovirus IC80 [2]: 4.14 ng/mL | Neutralization (ng/mL), Pseudovirus IC90 [2]: 9.95 ng/mL | Kd [3]: 98.8 nM

B9: AB-2 full-length IgG1 (antibody, V domains shown)
VH: EVQLEESGTVLARPGASVKMSCKASGYTFTTYWMHWIKQRPGQGLEWIGAIYPGNGDTNYNQKFKDKAKLTAVKSTSSAYMELSSLTNEDSAVYFCTREGIPQLLRTLDYWGQGTSVTVSS
VL: DILMTQSPSSLSASLGERVSLTCRASQEISGYLSWLQEKPDGTIKRLIYAASTLDSGVPKRFSGSRSGSDYSLTISSLESEDFADYYCLQYLSYPWTFGGGTKLEIK
Neutralization (ng/mL), Authentic Virus IC50 [2]: 379 ng/mL | Neutralization (ng/mL), Authentic Virus IC80 [2]: 3030 ng/mL | Neutralization (ng/mL), Pseudovirus IC50 [2]: 9.65 ng/mL | Neutralization (ng/mL), Pseudovirus IC80 [2]: 35.2 ng/mL | Neutralization (ng/mL), Pseudovirus IC90 [2]: 760 ng/mL | Kd [3]: 127 nM

B10: AB-10 full-length IgG1 (humanized) (antibody, V domains shown)
VH: QVQLVQSGAEVKKPGASVKVSCKASGYTFTSYWMHWVRQAPGQGLEWMGAIYPGNGDTNYAQKFQGRVTMTADTSISTAYMELSRLRSDDTAVYYCTREGIPQLLNTLDVWGQGTLVTVSS
VL: DIQMTQSPSSLSASVGDRVTITCRASQEISGYLNWYQQKPGKAPKRLIYAASSLQSGVPSRFSGSGSGTDFTLTISSLQPEDFATYYCQQYLSYPWTFGQGTKVEIK
Kd [5]: 25.4 nM | Req [5]: 0.102 nm shift | Response [5]: 0.114 nm shift | kobs [5]: 0.0151 s⁻¹ | koff [5]: 0.00306 s⁻¹ | kon [5]: 121000 M⁻¹ s⁻¹

B11: AB-11 full-length IgG1 (humanized) (antibody, V domains shown)
VH: EVQLVQSGAEVKKSGESLKISCKASGYTFTTYWMHWVRQMPGKGLEWMGAIYPGNSDTQYSPSFQGQVTLSADKSISTAYLQWSSLKASDTAMYFCTREGIPQLLRTLDYWGQGTLVTVSS
VL: EIVLTQSPGTLSLSPGERATLSCRASQEISGYLAWLQQKPGQAPRRLIYAASSLATGIPDRFSGSGSGTDFTLTISRLEPEDFAVYYCLQYLSYPWTFGQGTKVEIK
Kd [5]: 32.7 nM | Req [5]: 0.326 nm shift | Response [5]: 0.319 nm shift | kobs [5]: 0.0104 s⁻¹ | koff [5]: 0.00255 s⁻¹ | kon [5]: 78000 M⁻¹ s⁻¹

B12: AB-12 full-length IgG1 (humanized) (antibody, V domains shown)
VH: EVQLVQSGAEVKKPGESLKISCKASGYTFTTYWMHWVRQMPGKGLEWMGAIYPGNSDTRYSPSFQGQVTLSVDKSITTAYLQWNSLKASDTAMYFCTREGIPQLLRTLDYWGQGTLVTVSS
VL: DIQMTQSPSSLSASVGDRVTITCRASQGISGYLSWLQQKPEKAPKRLIYAASTLQSGVPSRFSGSGSGTDFTLTISSLQPEDFATYYCQQYLSYPWTFGQGTKLEIK
Kd [5]: 32.4 nM | Req [5]: 0.135 nm shift | Response [5]: 0.145 nm shift | kobs [5]: 0.0149 s⁻¹ | koff [5]: 0.00366 s⁻¹ | kon [5]: 113000 M⁻¹ s⁻¹
